Data from publication PMC12022973 (2025).
Positions of bridges follow the written chain, without caps; N, C: chain ends. Chains are numbered I, II in the order given. No end group written: not given here.

Target: preformed MYC/MAX heterodimer (human | , UniProt P61244 1-160)
Test: FP

preformed MYC/MAX heterodimer, sequence (chain, as listed by the source, chain 1 of 2): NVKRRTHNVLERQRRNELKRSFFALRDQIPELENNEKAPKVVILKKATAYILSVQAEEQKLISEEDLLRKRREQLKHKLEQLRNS
preformed MYC/MAX heterodimer, sequence (P61244 2-160, chain 2 of 2): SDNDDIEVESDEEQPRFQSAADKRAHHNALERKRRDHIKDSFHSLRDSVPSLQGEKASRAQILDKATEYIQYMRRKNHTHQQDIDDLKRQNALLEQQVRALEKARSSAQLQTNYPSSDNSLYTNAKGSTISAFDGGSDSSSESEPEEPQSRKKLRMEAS

Kd: 460 nM
B1: fluorescein-labeled CHD^Max-1 (cross-linked helix dimer derived from MAX) (designed binder)
chain 1: LREKIATLQWCIEELRK
chain 2: LRRKNETHQWEIEELC
modifications: bridge I:11-II:16; not fully specified (bridges); also: fluorescein label, chain and position not given here
